Test results: PMC3252255, “Heterologous overexpression of Glomerella cingulata FAD-dependent glucose dehydrogenase in Escherichia coli and Pichia pastoris” (Microbial Cell Factories, 2011)

B1: recGcGDH (recombinant Glomerella cingulata FAD-dependent glucose dehydrogenase) (Colletotrichum gloeosporioides) (protein)
chain: RPGSAPRDQAAATAYDYIVIGGGTSGLVVANRLSEDASVSVLVIEAGDSVLNNANVTNANGYGLAFGTDIDYAYQTTAQTYANNASTTLRAAKALGGTSTINGMAYTRAEASQIDAWETVGNEGWNWDALLPYYLKSETFQAPDAERSIKGHISYESDVHGHDGPLYTAYAYGSTNDSYPTSLNATYQALNVPWKEDIAGGSMVGFASYPKTLNQDLNIRWDAARAYYFPYENRTNLKVVLNTTAKKLTWASATNGTDATASGVEITAADGTTSVVTANKEVIISAGALVSPLLLELSGVGNPAWLSQYGIETVVELPTVGENLQDQINNELIYSPPTNFTSTYDSGVGAFVAYPSASHVFGTNESSASEELKSQLTAYADTVAIANGNVTKASDLLDFFQLQYDLIFKDQVPFAEVLIYIAKGSWGAEYWGLLPFSRGSIHISQANSTAGALINPNYFMLDYDVELQVATAKFIRSVFGTGPFASVAGTETTPGFDVIPADADEATWKSWATKEYRSNFHPVATAAMLPKEKGGVVDAQLKVYGTTNVRVVDASVLPFQVCGHLVSTLYAVAEKASDLIKAAA
notes: native stop codon in primer, no tag; glycosylated, 88-131 kDa on SDS-PAGE, 67 kDa deglycosylated

Columns and labels:
[1] = biological target: T1, recGcGDH (recombinant Glomerella cingulata FAD-dependent glucose dehydrogenase) (Colletotrichum gloeosporioides, UniProt G8E4B5); assay: UV/Vis absorption spectrum of purified enzyme, oxidized and glucose-reduced; type: binding; conditions: 50 mM citrate pH 5.5, room temperature; FAD bound as purified
T1 construct: gene gdh; native stop codon in primer, no tag; glycosylated, 88-131 kDa on SDS-PAGE, 67 kDa deglycosylated
T1 sequence (G8E4B5 17-600): B1 chain

[2] = substrate: OC[C@H]1OC(O)[C@H](O)[C@@H](O)[C@@H]1O; assay: steady-state kinetics, spectrophotometric ferrocenium reduction; type: biochemical, Colletotrichum gloeosporioides; conditions: pH 5.5, 30°C, ferrocenium hexafluorophosphate as electron acceptor (20 μM in table, 200 μM in methods), also measured at pH 7.5
Source text: steady-state kinetics, spectrophotometric ferrocenium reduction on recGcGDH (recombinant Glomerella cingulata FAD-dependent glucose dehydrogenase)

Molecule | UV/Vis absorption spectrum of purified enzyme, oxidized and glucose-reduced [1] | Km [2] [mM] | kcat [2] [s⁻¹] | kcat/Km [2] [M⁻¹ s⁻¹]
Cc1cc2nc3c(=O)[nH]c(=O)nc-3n(C[C@H](O)[C@H](O)[C@H](O)COP(=O)(O)OP(=O)(O)OC[C@H]3O[C@@H](n4cnc5c(N)ncnc54)[C@H](O)[C@@H]3O)c2cc1C [FAD] | typical flavoprotein spectrum shows the same characteristics as the spectrum of wild-type GcGDH | – | – | –
B1 | – | 10.1 ± 0.4 | 179 ± 4 | 17700
